Test results taken from patent US20170107569, “METHOD FOR ATTACHING ONE OR MORE POLYNUCLEOTIDE BINDING PROTEINS TO A TARGET POLYNUCLEOTIDE” (Oxford Nanopore Technologies Ltd., published 2017).

T1: T4 Dda-E94C/C109A/C136A/A360C helicase (UniProt P32270 SEQ:1-439, E94C/C109A/C136A/A360C)
T1 sequence: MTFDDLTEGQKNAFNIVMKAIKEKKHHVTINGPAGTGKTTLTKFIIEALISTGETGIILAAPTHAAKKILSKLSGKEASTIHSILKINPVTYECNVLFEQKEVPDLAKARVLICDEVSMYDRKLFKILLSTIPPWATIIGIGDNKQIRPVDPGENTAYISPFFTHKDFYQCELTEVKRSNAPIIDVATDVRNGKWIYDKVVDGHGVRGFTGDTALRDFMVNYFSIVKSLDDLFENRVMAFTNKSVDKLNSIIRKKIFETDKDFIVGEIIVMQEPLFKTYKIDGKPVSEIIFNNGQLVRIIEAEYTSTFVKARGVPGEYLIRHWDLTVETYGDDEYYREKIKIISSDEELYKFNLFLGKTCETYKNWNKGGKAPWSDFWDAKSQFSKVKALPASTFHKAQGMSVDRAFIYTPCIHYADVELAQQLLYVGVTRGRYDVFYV

B1: DNA Y-adapter (Example 2) (mixed)
DNA 1: TTTTTTTTTTTTGGTTGTTTCTGTTGGTGCTGATATTGCGGCGTCTGCTTGGGTGTTTAACCT
DNA 2: GGTTAAACACCCAAGCAGACGCCGCAATATCAGCACCAACAGAAACAACCTTTGAGGCGAGCGGTCAA
modifications: 30 iSpC3 at 5' end of SEQ 27; 4 iSp18 between SEQ 27 and SEQ 28; 5' phosphate on SEQ 26
B2: helicase-leader Y-adapter (Example 7) (mixed)
DNA 1: B1 DNA 1
DNA 2: GCAATATCAGCACCAACAGAAACAACCTTTGAGGCGAGCGGTCAA
modifications: 30 iSpC3 at 5' end of SEQ 27; 4 iSp18 between SEQ 27 and SEQ 28

Tests used:
[1] = molecular target: T1, T4 Dda-E94C/C109A/C136A/A360C helicase; test: EMSA; native TBE PAGE; 50 mM HEPES, 100 mM KOAc pH 8, 1 mM EDTA, 100 uM TMAD; 2:1 and 1:1 complexes, single enzyme after KCl/ATP and SPRI; conditions: tags: closed with TMAD; Y-adapter, partly double-stranded
Procedure: T4 Dda—E94C/C109A/C136A/A360C (3 μM, SEQ ID NO: 24 with mutations E94C/C109A/C136A/A360C) and DNA Y-adapter (500 nM, SEQ ID NO: 26 was hybridised to DNA strand X=30 iSpC3 spacers attached at the 3′ end to the 5′ end SEQ ID NO: 27 which is attached at the 3′ end to 4 iSp18 spacers which are attached at the opposite end to the 5′ end of SEQ ID NO: 28) were mixed in buffer (50 mM HEPES, 100 mM KOAc (pH 8) and EDTA (1 mM) and TMAD (100 μM) were added and incubated for 60 minutes at room temperature. The mixture was then diluted 1:1 in KCl/ATP solution (500 mM KCl, 1 mM ATP final) and incubated at ambient temperature for 25 mins, this mixture was known as sample 3.
The resultant enzyme bound to DNA was then analysed using a TBE PAGE gel as described previously in Example 1 except the gel was run for 45 mins.

[2] = molecular target: T1, T4 Dda-E94C/C109A/C136A/A360C helicase; test: EMSA; native TBE PAGE, band C; conditions: tags: closed with TMAD; Y-adapter, partly double-stranded
Procedure: Each sample run on the gel was 400 nM (5 μL). Lane 1 corresponded to a 100 bp ladder (the number of base pairs that the bands correspond to is shown along the side of the gel). Lane 2 corresponded to helicase leader complex shown in FIG. 12A, without the helicase bound. Lane 3 corresponded to the helicase leader complex shown in FIG. 12A with the helicase bound. Lane 4 corresponded to the polymerase strand complex shown in FIG. 12B without the polymerase bound. Lane 5 corresponded to the polymerase strand complex shown in FIG. 12B with the polymerase bound. Band A corresponded to SEQ ID NO: 43. Band B corresponded to DNA strand X=30 iSpC3 spacers attached at the 3′ end to the 5′ end SEQ ID NO: 27 which is attached at the 3′ end to 4 iSp18 spacers which are attached at the opposite end to the 5′ end of SEQ ID NO: 28. Band C corresponded to the helicase (T4 Dda—E94C/C109A/C136A/A360C) bound to DNA strand X. Band D corresponded to the polymerase strand complex without the enzyme bound (SEQ ID NO: 44 which was attached at its 3′ end to four iSpC3 spacers which were attached at the opposite end to the 5′ end of SEQ ID NO: 45). Band E corresponded to Phi29-A411C/Q560C bound to the polymerase strand complex.
The helicase-leader complex (diagram shown in FIG. 12 section A) was prepared as described in Example 2, except SEQ ID NO: 26 is replaced with SEQ ID NO: 43.

Binder	binding result [1]	binding result [2]
B1	binds	
B2		binds
